Test [1] addresses formyl-peptide receptors (FPRs) of CHO-K1 cells (Chinese hamster (endogenous in CHO-K1)).
Test [2] addresses formyl-peptide receptor (FPR) (human (endogenous in SKOV-3)) (UniProt P21462).
Test [3] shares this target. The source holds these as a separate data set.
For test [4], the target named is formyl-peptide receptors (FPRs) of CHO-K1 cells (Chinese hamster (endogenous in CHO-K1)). This is another data set of the same source.

Sequence of UniProt P21462 (P21462 whole entry): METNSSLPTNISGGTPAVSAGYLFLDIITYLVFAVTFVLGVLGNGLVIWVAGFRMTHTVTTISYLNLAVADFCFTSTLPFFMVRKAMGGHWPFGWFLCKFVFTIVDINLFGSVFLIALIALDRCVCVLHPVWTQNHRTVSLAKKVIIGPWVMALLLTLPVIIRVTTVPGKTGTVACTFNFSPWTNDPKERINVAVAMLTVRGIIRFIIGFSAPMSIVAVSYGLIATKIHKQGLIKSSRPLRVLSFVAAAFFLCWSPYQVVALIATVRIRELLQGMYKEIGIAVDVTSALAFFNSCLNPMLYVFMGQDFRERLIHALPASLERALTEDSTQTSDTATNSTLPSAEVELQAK

“truncated uPAR lacking the D1 domain and exposing the 84-95 sequence (uPARD2D3) on CHO-K1 cells (domain or fragment)”: the reduction by 10 nM RERF peptide of the Cell Index of CHO-K1/D2D3 cells invading matrigel toward serum (xCELLigence, after 18 hrs) (% reduction of Cell Index) in test [1] was found to be 83.

In test [1], “wild type, full length uPAR (D1D2D3) on CHO-K1 cells (from UniProt Q03405 23-305) (receptor)” displayed a reduction by 10 nM RERF peptide of the Cell Index of CHO-K1/D1D2D3 cells invading matrigel toward serum (xCELLigence, after 18 hrs) (% reduction of Cell Index) of 75.

Molecule “urokinase receptor (uPAR) (from UniProt Q03405 23-305)” returned a reduction of migration of SKOV-3 cells toward 10% FBS by RERF peptide, 10 fM to 10 pM (35% at 10 fM, 60% at 10 pM) (% reduction of cell migration) in test [2] of 60. This molecule displayed a reduction by 10 nM RERF peptide of the Cell Index of SKOV-3 cells invading matrigel toward serum (xCELLigence, 18 hrs); anti-uPAR84-95 polyclonal antibody reduced it by 50% (% reduction of Cell Index) in test [3] of 86.

B1: SRSRY peptide (uPAR 88-92, Ser-Arg-Ser-Arg-Tyr) (peptide)
peptide: SRSRY
For B1, the migration of wild type CHO-K1 cells toward 10 nM SRSRY (Boyden chamber, 4 hrs, 37°C), percent of basal (% of the basal cell migration) in test [4] stood at 177.

Values taken from publication PMC4147313.
